Laboratory results published in publication PMC8437434.

Key:
[1] = molecular target: tau^4R (residues 244-372, C322A) (UniProt P10636)
[2] = molecular target: tau^4R (residues 244-372, C322A) (UniProt P10636); remark: listed apart in the source

Chain of tau^4R (residues 244-372, C322A) (P10636 561-689 C639A): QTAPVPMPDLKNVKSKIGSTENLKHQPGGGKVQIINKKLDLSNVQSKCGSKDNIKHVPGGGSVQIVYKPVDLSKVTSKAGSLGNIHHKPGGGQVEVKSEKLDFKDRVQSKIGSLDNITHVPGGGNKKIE

Substance: HSPB1 3D GXG variant (S15D, S78D, S82D, I181G, V183G) (from UniProt P04792 1-205) (natural protein)
- reduction of tau fibril mass (unnormalised ThT kinetics) at 1:1 HSPB1:tau [1]: 47%
- reduction of tau fibril mass (kinetic measurements) at equimolar HSPB1:tau [2]: 45%

Substance: full-length DNAJB1 (from UniProt P25685 1-340) (natural protein)
- reduction of tau fibril mass (unnormalised ThT kinetics), DNAJB1:tau 0.5:1 (67%) to 1:1 [1]: 94%
